Assay results reported in patent US20220323619A1 (TELIX INTERNATIONAL, published 2022).
Changes are numbered by the printed parent chain. Numbers in names are those of the source. Each block holds one binder with its values, some of them ahead of it.

How the values were obtained:
[1] = biological target: T1, human FcγRI (Sino Biological, His-tagged) (human, UniProt P12314 16-288, limits assumed); assay: Biacore single cycle, His-tagged receptor captured on anti-His CM5 chip, antibody analyte; 1:1 kinetics
T1 construct: Bought product; also called FcgRI; not shown: His tag

[2] = biological target: T2, human FcγRIIIa 176F (Sino Biological, His-tagged) (human, UniProt P08637 17-208); assay: Biacore single cycle, His-tagged receptor captured on anti-His CM5 chip, antibody analyte; steady state
T2 construct: not shown: His tag

[3] = biological target: T3, human FcγRIIa 167R (Sino Biological, His-tagged) (human, UniProt P12318 34-218, limits assumed); assay: as above
T3 construct: not shown: His tag
T3 sequence (looked up): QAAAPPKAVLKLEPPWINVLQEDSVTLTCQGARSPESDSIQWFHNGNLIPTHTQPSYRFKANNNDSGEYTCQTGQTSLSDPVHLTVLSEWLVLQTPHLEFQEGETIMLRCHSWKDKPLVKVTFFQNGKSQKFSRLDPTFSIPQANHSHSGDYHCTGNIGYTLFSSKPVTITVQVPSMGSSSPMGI

[4] = biological target: T4, human FcγRIIa 167H (Sino Biological, His-tagged) (human, UniProt P12318 34-218, limits assumed); assay: as above
T4 construct: not shown: His tag
T4 sequence (looked up): T3 sequence (looked up) with R134H

[5] = biological target: T5, human FcγRIIIb (Sino Biological, His-tagged) (human, UniProt O75015 17-200, limits assumed); assay: as above
T5 construct: not shown: His tag

[6] = biological target: T6, human FcγRIIb (Sino Biological, His-tagged) (human, UniProt P31994 43-217, limits assumed); assay: as above
T6 construct: not shown: His tag
T6 sequence (looked up): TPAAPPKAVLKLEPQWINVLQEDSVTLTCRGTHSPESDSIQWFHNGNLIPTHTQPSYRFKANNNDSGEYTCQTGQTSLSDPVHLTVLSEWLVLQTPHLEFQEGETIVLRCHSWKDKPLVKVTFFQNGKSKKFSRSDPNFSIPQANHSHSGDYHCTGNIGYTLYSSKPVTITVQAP

[7] = biological target: T7, human FcγRIIIa 176V (Sino Biological, His-tagged) (human, UniProt P08637 17-208); assay: as above
T7 construct: not shown: His tag

[8] = biological target: T8, prostate-specific membrane antigen (PSMA) (R&D Systems) (UniProt Q04609 44-750); assay: Biacore multi-cycle kinetics, antibody captured on Protein G chip, PSMA analyte 1.5625-25 nM
T8 construct: Soluble analyte in the Biacore assay
T8 sequence (Q04609 44-750 limits assumed): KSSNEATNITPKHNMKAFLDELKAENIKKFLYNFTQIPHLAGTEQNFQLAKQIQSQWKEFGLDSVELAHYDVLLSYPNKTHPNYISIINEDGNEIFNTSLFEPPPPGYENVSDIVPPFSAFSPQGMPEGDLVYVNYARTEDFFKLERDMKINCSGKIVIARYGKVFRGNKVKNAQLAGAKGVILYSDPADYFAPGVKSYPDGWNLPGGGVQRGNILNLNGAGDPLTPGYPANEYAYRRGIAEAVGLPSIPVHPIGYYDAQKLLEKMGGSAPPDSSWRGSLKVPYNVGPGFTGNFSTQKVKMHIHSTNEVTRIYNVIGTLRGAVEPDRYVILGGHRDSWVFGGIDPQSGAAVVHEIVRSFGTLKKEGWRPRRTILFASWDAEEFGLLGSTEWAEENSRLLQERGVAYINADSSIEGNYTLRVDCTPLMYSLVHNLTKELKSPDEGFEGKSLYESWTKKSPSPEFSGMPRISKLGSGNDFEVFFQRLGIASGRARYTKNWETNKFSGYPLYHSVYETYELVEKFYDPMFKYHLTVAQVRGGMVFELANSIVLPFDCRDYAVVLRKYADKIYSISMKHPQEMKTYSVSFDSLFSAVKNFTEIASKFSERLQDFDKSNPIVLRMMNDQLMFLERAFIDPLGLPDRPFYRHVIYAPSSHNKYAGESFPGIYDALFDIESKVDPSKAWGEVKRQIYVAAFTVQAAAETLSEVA

T7 sequence (P08637 17-208 F176V limits assumed): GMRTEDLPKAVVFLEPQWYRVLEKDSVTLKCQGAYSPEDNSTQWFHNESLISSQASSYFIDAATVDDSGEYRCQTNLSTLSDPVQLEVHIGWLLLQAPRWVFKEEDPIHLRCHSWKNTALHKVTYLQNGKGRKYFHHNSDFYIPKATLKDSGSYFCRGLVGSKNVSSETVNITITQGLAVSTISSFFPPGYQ
T1 sequence (P12314 16-288 limits assumed): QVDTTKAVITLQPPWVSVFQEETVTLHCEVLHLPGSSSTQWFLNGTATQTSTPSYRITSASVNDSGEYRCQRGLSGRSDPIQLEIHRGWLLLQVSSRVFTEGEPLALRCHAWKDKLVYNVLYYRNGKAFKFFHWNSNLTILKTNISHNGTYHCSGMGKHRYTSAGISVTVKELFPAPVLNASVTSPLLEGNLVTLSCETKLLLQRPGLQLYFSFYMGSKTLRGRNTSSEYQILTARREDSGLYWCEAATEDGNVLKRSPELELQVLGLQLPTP
T5 sequence (O75015 17-200 limits assumed): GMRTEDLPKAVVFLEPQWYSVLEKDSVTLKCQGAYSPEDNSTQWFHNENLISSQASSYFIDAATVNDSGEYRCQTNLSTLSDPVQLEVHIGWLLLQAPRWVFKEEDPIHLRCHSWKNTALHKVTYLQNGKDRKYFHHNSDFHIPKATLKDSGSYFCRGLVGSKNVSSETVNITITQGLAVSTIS
T2 sequence (P08637 17-208 limits assumed): as the sequence (P08637 17-208 F176V limits assumed) above, with V160F counted along it

binding result [1]: binds
binding result [2]: binds
binding result [3]: binds
binding result [4]: binds
binding result [5]: binds
binding result [6]: binds
binding result [7]: binds
B1: ANT4044 IgG1 (H310A, H435Q) (antibody)
heavy: not shown
light: DIQMTQSPSTLSASVGDRVTITCKASQDVGTAVDWYQQKPGQAPKLLIYWASTRHTGVPDRFSGSGSGTDFTLTISRLQPEDFAVYYCQQYNSYPLTFGQGTKVDIKRTVAAPSVFIFPPSDEQLKSGTASVVCLLNNFYPREAKVQWKVDNALQSGNSQESVTEQDSKDSTYSLSSTLTLSKADYEKHKVYACEVTHQGLSSPVTKSFNRGEC
notes: also called ANT4044-IgG1-2M; ANT4044-FcRn

binding result [1]: binds
binding result [2]: binds
binding result [3]: binds
binding result [4]: binds
binding result [5]: binds
binding result [6]: binds
binding result [7]: binds
binding result [8]: binds
B2: ANT4044-A2 IgG1 (H310A, H435Q) (antibody)
heavy: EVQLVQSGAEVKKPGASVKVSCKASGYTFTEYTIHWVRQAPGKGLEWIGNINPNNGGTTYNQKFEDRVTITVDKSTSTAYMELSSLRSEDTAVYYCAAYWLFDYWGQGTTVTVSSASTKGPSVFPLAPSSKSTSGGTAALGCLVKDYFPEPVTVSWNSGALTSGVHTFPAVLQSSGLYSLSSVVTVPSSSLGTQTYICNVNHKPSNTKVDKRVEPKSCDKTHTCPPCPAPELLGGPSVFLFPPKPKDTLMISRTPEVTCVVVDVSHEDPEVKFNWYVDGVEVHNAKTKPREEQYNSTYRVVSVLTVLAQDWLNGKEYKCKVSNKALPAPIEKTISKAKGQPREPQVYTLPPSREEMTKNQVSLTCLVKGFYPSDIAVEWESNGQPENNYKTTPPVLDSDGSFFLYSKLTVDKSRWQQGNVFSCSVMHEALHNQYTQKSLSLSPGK
light: B1 light
notes: also called ANT4044-A2 RADmAb IgG1

binding result [8]: binds
B3: ANT4044-A2 IgG1 (antibody)
heavy: not shown
light: B1 light
notes: also called ANT4044-A2 expressed as unmodified IgG1

binding result [8]: binds
B4: ANT4044-A2 IgG4 (S228P, L235E, H310A, H435Q) (antibody)
heavy: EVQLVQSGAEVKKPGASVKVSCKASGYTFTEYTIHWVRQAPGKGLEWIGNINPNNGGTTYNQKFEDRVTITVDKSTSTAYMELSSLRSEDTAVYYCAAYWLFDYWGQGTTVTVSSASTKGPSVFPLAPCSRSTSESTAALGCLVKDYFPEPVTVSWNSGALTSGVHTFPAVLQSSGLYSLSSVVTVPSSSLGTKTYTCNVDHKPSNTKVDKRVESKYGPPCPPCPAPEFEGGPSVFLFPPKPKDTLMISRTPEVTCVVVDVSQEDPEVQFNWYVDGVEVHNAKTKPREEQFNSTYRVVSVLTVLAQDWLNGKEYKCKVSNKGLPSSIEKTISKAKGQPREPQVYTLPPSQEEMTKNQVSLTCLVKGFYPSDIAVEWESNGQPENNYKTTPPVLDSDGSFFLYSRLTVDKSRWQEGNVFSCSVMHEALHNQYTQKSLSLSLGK
light: B1 light
notes: also called ANT4044-A2 RADmAb IgG4
